B1: FLAG-tagged rat CRP2 (αMHC-CRP2 transgene) (other, UniProt Q62908 1-193, looked up, not shown: small tags and cut ends)
chain: MPVWGGGNKCGACGRTVYHAEEVQCDGRTFHRCCFLCMVCRKNLDSTTVAIHDEEIYCKSCYGKKYGPKGYGYGQGAGTLNMDRGERLGIKPESAQPHRPTTNPNTSKFAQKYGGAEKCSRCGDSVYAAEKIIGAGKPWHKNCFRCAKCGKSLESTTLTEKEGEIYCKGCYAKNFGPKGFGYGQGAGALVHAQ
notes: Expressed in cardiomyocytes of transgenic mice and assayed in nuclear and cytoplasmic heart extracts; also called FLAG-CRP2; FLAG-tagged CRP2

The target in assay [1] is T1, endogenous SRF (αMHC-CRP2 mouse heart nuclear extract) (mouse, UniProt Q9JM73 1-504).
T1 sequence (looked up): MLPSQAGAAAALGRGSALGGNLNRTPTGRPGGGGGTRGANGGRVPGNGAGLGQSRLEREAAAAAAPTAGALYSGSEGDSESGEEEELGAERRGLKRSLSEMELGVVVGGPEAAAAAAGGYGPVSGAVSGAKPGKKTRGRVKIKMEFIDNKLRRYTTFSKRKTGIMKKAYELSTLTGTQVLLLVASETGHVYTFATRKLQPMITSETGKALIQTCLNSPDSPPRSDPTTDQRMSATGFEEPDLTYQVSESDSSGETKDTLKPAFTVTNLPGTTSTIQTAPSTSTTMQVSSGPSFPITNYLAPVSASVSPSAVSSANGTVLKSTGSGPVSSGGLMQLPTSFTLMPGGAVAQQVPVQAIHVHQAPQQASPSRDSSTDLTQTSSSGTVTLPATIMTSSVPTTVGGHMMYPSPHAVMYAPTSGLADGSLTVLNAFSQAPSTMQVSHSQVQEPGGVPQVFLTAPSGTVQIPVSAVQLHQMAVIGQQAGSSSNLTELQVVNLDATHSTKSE
Kind of assay: co-IP from nuclear extracts of αMHC-CRP2 transgenic mouse hearts, immunoblot. (In general: Immunoblotting shows a protein as a band on a membrane.)

The target in assay [2] is B1. Nature of the assay: co-IP from nuclear extracts of αMHC-CRP2 transgenic mouse hearts.
The target in assay [3] is T1, endogenous SRF (αMHC-CRP2 mouse heart …). The assay is described as above.
Assay [4] deals with endogenous GATA6 (αMHC-CRP2 mouse heart nuclear extract) (mouse, UniProt Q61169 1-589, limits assumed). The description is as above.
The target in the next assay is T2, GST-SRF (human, UniProt P11831 1-508).
T2 construct: also called GST-SRF fusion protein; not shown: glutathione S-transferase encoded by vector pGEX-2T
T2 sequence (looked up): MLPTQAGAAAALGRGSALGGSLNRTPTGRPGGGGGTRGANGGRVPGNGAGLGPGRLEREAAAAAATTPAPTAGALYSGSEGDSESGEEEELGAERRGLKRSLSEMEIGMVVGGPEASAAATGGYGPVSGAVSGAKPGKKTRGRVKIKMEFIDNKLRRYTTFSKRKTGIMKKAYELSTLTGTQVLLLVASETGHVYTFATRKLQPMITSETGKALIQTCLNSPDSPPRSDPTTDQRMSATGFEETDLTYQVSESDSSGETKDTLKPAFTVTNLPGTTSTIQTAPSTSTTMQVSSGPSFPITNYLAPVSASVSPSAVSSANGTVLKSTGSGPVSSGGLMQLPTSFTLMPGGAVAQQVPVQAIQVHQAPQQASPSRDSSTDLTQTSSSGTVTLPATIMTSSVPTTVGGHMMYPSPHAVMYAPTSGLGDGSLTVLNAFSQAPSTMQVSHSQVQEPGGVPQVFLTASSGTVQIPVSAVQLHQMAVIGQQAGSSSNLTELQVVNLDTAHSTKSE
Nature of the assay: GST-SRF pull-down of 35S-labelled in vitro translated protein.

endogenous GATA6 (αMHC-CRP2 mouse heart nuclear extract), sequence (Q61169 whole entry): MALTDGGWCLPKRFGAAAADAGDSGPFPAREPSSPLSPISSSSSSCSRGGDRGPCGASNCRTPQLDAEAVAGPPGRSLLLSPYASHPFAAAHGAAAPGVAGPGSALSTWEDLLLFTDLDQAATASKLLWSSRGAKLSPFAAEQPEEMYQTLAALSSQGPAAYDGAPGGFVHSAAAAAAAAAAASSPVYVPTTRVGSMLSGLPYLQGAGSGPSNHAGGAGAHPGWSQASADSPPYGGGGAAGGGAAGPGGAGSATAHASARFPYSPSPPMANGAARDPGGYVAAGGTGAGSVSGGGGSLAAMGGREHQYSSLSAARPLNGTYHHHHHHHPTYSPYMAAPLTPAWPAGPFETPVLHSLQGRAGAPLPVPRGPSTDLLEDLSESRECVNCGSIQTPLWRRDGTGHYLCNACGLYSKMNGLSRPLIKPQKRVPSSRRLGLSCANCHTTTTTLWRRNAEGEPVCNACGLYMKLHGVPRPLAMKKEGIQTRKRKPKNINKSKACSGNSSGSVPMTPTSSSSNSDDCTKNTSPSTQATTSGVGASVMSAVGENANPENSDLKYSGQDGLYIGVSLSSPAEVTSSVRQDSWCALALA

Consider B1, for which the binding result in assay [1] is “binds”.

B2: Id1, endogenous cardiac bHLH transcription factor (other, mouse, UniProt P20067 1-168, looked up)
chain: MKVASGSAAAAAGPSCSLKAGRTAGEVVLGLSEQSVAISRCAGTRLPALLDEQQVNVLLYDMNGCYSRLKELVPTLPQNRKVSKVEILQHVIDYIRDLQLELNSESEVGTTGGRGLPVRAPLSTLNGEISALAAEVRSESEYYIILQWETEATGGGCPPSLLFRRIAI
For B2, the binding result in assay [2], in assay [3] and in assay [4] was “no binding” throughout.

B3: CRP2ZF2+ZF3 (aa 35-145) (other, rat, UniProt Q62908 35-145, looked up, not shown: small tags and cut ends)
chain: FLCMVCRKNLDSTTVAIHDEEIYCKSCYGKKYGPKGYGYGQGAGTLNMDRGERLGIKPESAQPHRPTTNPNTSKFAQKYGGAEKCSRCGDSVYAAEKIIGAGKPWHKNCFR
notes: range 35-145; also called C2ZF2+ZF3
Regarding B3, the binding result with GST-SRF is “no binding”.

The values are drawn from US20050037961A1 (BAYLOR COLLEGE OF MEDICINE, published 2005).
